The subject of this data set is T1, CC(C)(COP(=O)(O)OP(=O)(O)OC[C@H]1O[C@@H](n2cnc3c(N)ncnc32)[C@H](O)[C@@H]1OP(=O)(O)O)[C@@H](O)C(=O)NCCC(=O)NCCSC(=O)CCCCCCCCCCCCCCCNc1ccc([N+](=O)[O-])c2nonc12.
T1 construct: full length, HA tag kept (pEF-Bos-HA), HEK293 membrane fraction
The experiment in a line: auto-S-palmitoylation of HEK293 membranes, SDS-PAGE fluorescence normalised to tag Western blot. The format is cell-based, Mus musculus. The following applies: pH 7.4, 37 °C, labelled compound, covalent thioester at active-site Cys.

mouse zDHHC17 (Mus musculus), sequence (chain, as listed by the source): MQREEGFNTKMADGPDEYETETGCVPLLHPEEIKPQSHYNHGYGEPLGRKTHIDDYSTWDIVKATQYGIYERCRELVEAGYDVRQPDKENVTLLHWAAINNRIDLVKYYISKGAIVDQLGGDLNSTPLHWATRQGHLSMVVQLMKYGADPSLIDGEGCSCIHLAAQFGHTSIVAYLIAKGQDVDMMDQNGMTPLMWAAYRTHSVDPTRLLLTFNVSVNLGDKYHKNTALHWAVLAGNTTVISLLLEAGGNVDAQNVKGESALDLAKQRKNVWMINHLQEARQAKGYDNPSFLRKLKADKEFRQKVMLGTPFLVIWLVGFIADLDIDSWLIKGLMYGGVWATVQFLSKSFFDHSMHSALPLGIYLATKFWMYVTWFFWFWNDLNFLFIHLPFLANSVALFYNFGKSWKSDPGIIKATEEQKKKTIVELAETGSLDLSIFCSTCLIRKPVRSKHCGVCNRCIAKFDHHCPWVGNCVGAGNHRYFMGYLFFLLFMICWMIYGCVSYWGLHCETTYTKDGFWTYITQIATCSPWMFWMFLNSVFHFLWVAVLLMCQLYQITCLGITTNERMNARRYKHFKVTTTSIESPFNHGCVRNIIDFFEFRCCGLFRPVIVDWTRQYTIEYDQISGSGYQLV

As for mouse zDHHC17 (Mus musculus), the Km came to 6.20 ± 1.20 µM.
